Laboratory results: article PMC6563020, “Protein Redox State Monitoring Studies of Thiol Reactivity” (Antioxidants, 2019)
“And” between values parts separate entries of the source, which are not always exact repeats. Identical values can stand only once.

Assays:
[1] = target: T1, Human peroxiredoxin 6 (Prx6) (human (endogenous in human pulmonary artery smooth muscle cells)), P30041; assay: non-reducing SDS-PAGE and immunoblot; untreated (or PDGF-treated) human pulmonary artery smooth muscle cells; TCA-precipitated lysates labelled with Protein-SHifter Plus, SDS-PAGE without BME, immunoblot with Prx6 antibody; details: remark: other sources report otherwise
T1 chain: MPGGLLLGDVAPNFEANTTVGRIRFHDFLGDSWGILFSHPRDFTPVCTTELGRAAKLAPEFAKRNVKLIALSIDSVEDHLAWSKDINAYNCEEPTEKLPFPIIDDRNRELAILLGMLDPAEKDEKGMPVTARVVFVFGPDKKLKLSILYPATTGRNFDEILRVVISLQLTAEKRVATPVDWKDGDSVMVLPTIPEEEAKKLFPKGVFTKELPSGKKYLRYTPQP

[2] = target: T1, Human peroxiredoxin 6 (Prx6) (human …); assay: non-reducing SDS-PAGE and immunoblot; human pulmonary artery smooth muscle cells, with or without deferoxamine (50 uM, 30 min) and H2O2 (15 min); lysates on SDS-PAGE with or without 5% BME, immunoblot with Prx6 antibody; no Protein-SHifter; details: remark: other sources report otherwise
[3] = target: T1, Human peroxiredoxin 6 (Prx6) (human …); assay: SDS-PAGE and immunoblot; lysate proteins from untreated human pulmonary artery smooth muscle cells denatured with SDS and incubated with H2O2 (or BME) in a test tube for 15 min; Protein-SHifter Plus added, SDS-PAGE, immunoblot with Prx6 antibody; details: remark: other sources report otherwise
[4] = target: the molecule itself; assay: SDS-PAGE and immunoblot; untreated rat pulmonary artery smooth muscle cells; lysates on SDS-PAGE, immunoblot with Prx6 antibody; no Protein-SHifter
[5] = target: the molecule itself; assay: non-reducing SDS-PAGE with Coomassie staining; purified recombinant CNBD, untreated or treated with H2O2 (1 mM) for 15 min; SDS-PAGE, Coomassie Blue; no Protein-SHifter

B1: Human peroxiredoxin 6 (Prx6), P30041 1-224 (enzyme)
chain: T1 chain
stoichiometry N [1]: 2 and 3
stoichiometry N [2]: 2
stoichiometry N [3]: 2

B2: Rat peroxiredoxin 6 (Prx6) (enzyme, UniProt O35244 1-224, looked up)
chain: MPGGLLLGDEAPNFEANTTIGHIRFHDFLGDSWGILFSHPRDFTPVCTTELGRAAKLAPEFAKRNVKLIALSIDSVEDHFAWSKDINAYNGAAPTEKLPFPIIDDKDRDLAILLGMLDPAEKDEKGMPVTARVVFIFGPDKKLKLSILYPATTGRNFDEILRVVDSLQLTASNPVATPVDWKKGESVMVLPTLPEEEAKQLFPKGVFTKELPSGKKYLRYTPQP
notes: Peroxiredoxin 6, rat, one cysteine only (catalytic Cys47); also called rat Prx6; source: endogenous, rat pulmonary artery smooth muscle cells (Cell Applications), in lysate
stoichiometry N [4]: 2

B3: Cyclic nucleotide-binding domain (CNBD) of human HCN4 (hHCN4) (domain or fragment, UniProt Q9Y3Q4 571-708, looked up)
chain: GELSEPLREEIINFNCRKLVASMPLFANADPNFVTSMLTKLRFEVFQPGDYIIREGTIGKKMYFIQHGVVSVLTKGNKETKLADGSYFGEICLLTRGRRTASVRADTYCRLYSLSVDNFNEVLEEYPMMRRAFETVAL
notes: two cysteines; 19 kDa; Subcloned into pETM11; the printed mass of 19 kDa is more than that of residues 571-708 alone, which may mean that the tag was kept; also called hHCN4 CNBD; CNBD domain of hHCN4 channels; source: E. coli BL21 (DE3), purified (Ni2+-NTA, size-exclusion chromatography)
stoichiometry N [5]: 2 and 3
